Results: patent publication US20120134979A1, “METHODS AND COMPOSITIONS FOR THE TREATMENT OF SICKLE CELL DISEASE” (priority 2010, published 2012)

Test system: WT mice
Test: WT (control) mice treated with PEG-ADA or PSB1115 for 8 weeks
Type: in vivo, mouse
Details: chronic PEG-ADA enzyme therapy
From the text: Mice. Berkley sickle cell disease transgenic mice (SCD Tg mice), expressing exclusively human sickle hemoglobin (HbS) were purchased from The Jackson Laboratory Inc (Paszty, C. Transgenic and gene knock-out mouse models of sickle cell anemia and the thalassemias. Curr Opin Hematol 4, 88-93, 1997). C57BL/6 mice used as controls were purchased from Harlan Laboratories. Adenosine receptor deficient mice were obtained from the following sources: A1R-deficient mice (Jurgen Schnermann, NIDDK, NIH); A2AR-deficient mice (Jiang-Fan Chen, Boston University School of Medicine); A2BR-deficient mice (Michael R. Blackburn, University of Texas-Houston Medical School); and A3R-deficient mice (Marlene Jacobson, Merck Research Laboratories). […]
Mouse organ isolation and histological analysis. Mice were anesthetized and body weight was determined. […] Semiquantification of histological changes was analyzed by Image-Plus, Pro software.

B1: PEG-ADA: polyethylene glycol-modified adenosine deaminase, a drug used to lower adenosine concentrations in ADA-deficient humans (protein, UniProt P56658 2-363, looked up)
Adenosine deaminase: AQTPAFNKPKVELHVHLDGAIKPETILYYGRKRGIALPADTPEELQNIIGMDKPLSLPEFLAKFDYYMPAIAGCREAVKRIAYEFVEMKAKDGVVYVEVRYSPHLLANSKVEPIPWNQAEGDLTPDEVVSLVNQGLQEGERDFGVKVRSILCCMRHQPSWSSEVVELCKKYREQTVVAIDLAGDETIEGSSLFPGHVKAYAEAVKSGVHRTVHAGEVGSANVVKEAVDTLKTERLGHGYHTLEDATLYNRLRQENMHFEVCPWSSYLTGAWKPDTEHPVVRFKNDQVNYSLNTDDPLIFKSTLDTDYQMTKNEMGFTEEEFKRLNINAAKSSFLPEDEKKELLDLLYKAYGMPSPASAEQCL
modifications: PEGylated
- effect on kidney histology of control mice: no significant effect
